Experimental data taken from the supplement of paper PMC9170038.

These sequences were tested on MS2 coat protein (assay: apparent KD of MS2 coat protein; higher = weaker reporter binding). Details: Eterna round: R107; input ligand: arginine 13.2 mM.
Method in brief: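 Designed RNA switches were transcribed on-chip from Illumina sequencing clusters. SNAP-549-labelled MS2 coat protein was titrated onto them in twofold steps from 0.7 or 1.5 nM to 3 µM in 100 mM Tris-HCl pH 7.5, 80 mM KCl, 4 mM MgCl2, either without or with constant ligand. Apparent KD reflects the per-design median of normalised cluster binding-curve fits.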
In the case of “AAAUACAUGAGGAUCACCCAUGUCAAUAAUCGAGGACCGGUACGGCCGCCACUCGAUCGGCCAAGAAAAUGAAAGAUGAUCUCUA [theeternabot_sameState_MS2_Trp_A_8]”, the “apparent KD of MS2 coat protein” value is reported as 0.0181 µM. “GAACAUGAGGAUCACCCAUGUAAAACAGAUACCAGUGAUAUAAUACACCCUUGGCAGCUGAAGCUGAAUAAUAAUUCCCUCAAGC [Same State Theophylline A GF1]” was tested, and the “apparent KD of MS2 coat protein” value was 0.017 µM. “UUUAAUUUAAUAGAUACCAGCUAAUAAUAAUCCCGGAGGACAUGAGGAUCACCCAUGUGGAGCCCUUGGCAGCUAAAAUAAAUUU [Exclusion - Theophylline B]” was tested, and the “apparent KD of MS2 coat protein” value was 0.0201 µM. In the case of “UGAUCCUACAGAGAUACCAGUGCCGCUGAGUGACCAGACACAUGAGGAUCACCCAUGUAACACCCUUGGCAGCUCAACUAGAGGG [Same State Theophylline B GF19]”, the “apparent KD of MS2 coat protein” value is reported as 0.0128 µM. “CCCGACGAGCCUGAGAUUAAGUAAGCGGAUACCAGAGAUAGGUAGCUCCCUUGGCAGCCGUGGACAUGAGGAUCACCCAUGUCAC [theeternabot_exclusion_MS2_Theo_A_22]” was tested, and the “apparent KD of MS2 coat protein” value was 0.0114 µM. For “AGCACUGUGACGGCCGCCACUACAUAAAUUGGGUGGUCAGGUUCAUUACAUGAGGAUCACCCAUGUAGGACCGGGUCUCAGUGCA [Omei Trp Exc B A v8]”, the “apparent KD of MS2 coat protein” value was 0.0159 µM. “AGAUCUUUCGAAAGAAGGAUCUUGUCUGAUACCAGAGACGAAAGUCUCCCUUGGCAGCAGUGCCAACAUGAGGAUCACCCAUGUA [Theophylline A 12]” was tested, and the “apparent KD of MS2 coat protein” value was 0.022 µM. With “UUUGAUAUGACAGAUACCAGCGUGUUGUUGAACAUGAGGAUCACCCAUGUAGUGAUCAAGCGCCCUUGGCAGCUGGUGUGUUAGG [7.P]” the “apparent KD of MS2 coat protein” value was 0.0555 µM. “GGAUUCAACUCGGCCGCCACUGGUGAUCCUAAUGUACAUGAGGAUCACCCAUGUACAUGAGAAUACAGGACCGGGAGAUAAGCAA [Tryptophan B V2 (+4A)]” was tested, and the “apparent KD of MS2 coat protein” value was 0.0201 µM. In the case of “UCUACAUGAGGAUCACCCAUGUGCCAUGAUACCAGACAUGAAAAUGUCCCUUGGCAGCAUGGGUAGCGCAUCCGAAAGGAUGCGU [#06 SameState-TheophyllineA]”, the “apparent KD of MS2 coat protein” value is reported as 0.0424 µM. For “AACAAUGCACAUGAGGAUCACCCAUGUGAUACCAGCCGCAACAUAGGCCCUUGGCAGCAUGUGGGUAUAGAACGAUUUGGCUGAA [Xeanle]”, the “apparent KD of MS2 coat protein” value was 0.0244 µM. In the case of “UGUAUGUGAUCUGAUACCAGUCCAACUGGUAAAGCAUGAGGAUCACCCAUGCAAAAUUGGGACCCUUGGCAGCAGAUCGCAUACU”, the “apparent KD of MS2 coat protein” value is reported as 0.167 µM. With “UUGGAUGAAGGAGUGAAAAGCAACUCAGAUACCAGUCUGAGUAAUGACCCUUGGCAGCUGAGAACAUGAGGAUCACCCAUGUGAC [theeternabot_exclusion_MS2_Theo_A_34]” the “apparent KD of MS2 coat protein” value was 0.0117 µM. For “UCUGGGUGCGCAAGGACCUGGAGUUGCGAUACCAGCACGGUAACGUGCCCUUGGCAGCGCACAUGAGGAUCACCCAUGUGGUGUU [#1 Exclusion - Theophylline A Attempt #18 (HarryS)]”, the “apparent KD of MS2 coat protein” value was 0.0656 µM. With “GGCACAUAGUCGGCCGCCACUAGGGUGUAGUGGAAUAACAUGAGGAUCACCCAUGUAUUUGGGACUAGGACCGGGACUAUGUGCC [Leopard]” the “apparent KD of MS2 coat protein” value was 0.0272 µM. With “UACUUGCUGACGGCCGCCACUAGAACAUGAGGAUCACCCAUGUAUUCUAGUCGUCAUGGGUGGACUAGGACCGGGUCAGCAAGAU [(Trp1)-(Ms2)-(T)'-(M)'-(Trp2)_Design8]” the “apparent KD of MS2 coat protein” value was 0.0307 µM. In the case of “AGAGAGGCGCAUGAUACCAGCUUGGCCUAACAUGAGGAUCACCCAUGUCAAUGGGCCUUAAGCCCUUGGCAGCAUAGGGUGUCCU [Xeestixexe]”, the “apparent KD of MS2 coat protein” value is reported as 0.0727 µM. “GGAUGGAACUCGGCCGCCACUGGUGAUCCUAAUGUACAUGAGGAUCACCCAUGUACAUGAGAAGAUAGGACCGGGAGAUAACAUG [V5]” was tested, and the “apparent KD of MS2 coat protein” value was 0.0235 µM. “AUGUUGGUCUGAAGGAGCGCGAUAACAUGAGGAUCACCCAUGUUAAAUGGUACAUGAUACUCGCAGGUAGGUCGCAGUACGACAA [Same State Arginine B GF 13]” was tested, and the “apparent KD of MS2 coat protein” value was 0.0186 µM. For “AUGUCAUUGGUGCAGCUGUUAAAUGGCGAUACCAGCGUGGAAACACGCCCUUGGCAGCGCCAAAACAUGAGGAUCACCCAUGUUA [Zlin]”, the “apparent KD of MS2 coat protein” value was 0.023 µM. With “UUGUGUUUAUUGGUUUAGCUAUUAUGGUUGCGAGGACCGGUACGGCCGCCACUCGAUGGAACAUGAGGAUCACCCAUGUGAGGAA [JR_ExcTryptoA_Sub013]” the “apparent KD of MS2 coat protein” value was 0.0147 µM. “UGACAUGAGGAUCACCCAUGUGUAAGAGAAGGAGCGGCCGGAAGGCCAGGUAGGUCGCUCAGGUAGCGUGAGGAUCACCCGUGUG [big_hook]” was tested, and the “apparent KD of MS2 coat protein” value was 0.0818 µM. With “AGUUAAAUAUGUUAAUAACUAUUUACUGAAGGAGCGUGUUUUUACACAGGUAGGUCGCAGUGACAUGAGGAUCACCCAUGUAGUA [JR_SSArginiA_Sub012]” the “apparent KD of MS2 coat protein” value was 0.0313 µM. In the case of “UAACAUGAGGAUCACCCAUGUUUAGAUGAACGAGGACCGGUACGGCCGCCACUCGAUAAGUGGAAAGAGCGAGGGAUUGUAUGCU [Same State Trp A GF4]”, the “apparent KD of MS2 coat protein” value is reported as 0.0122 µM. “UUGGGUUUGUGAAGGAGCGGGAAUGUUUUAUAGUGGAUCCUAACAUGAGGAUCACCCAUGUCCCAGGUAGGUCGCGCGGGUUUGG [12.S]” was tested, and the “apparent KD of MS2 coat protein” value was 0.0401 µM. In the case of “CGCCGCGCGGGAAGGAGCGCGAUUACAUAACAUGAGGAUCACCCAUGUAAGAAAUUAUUCAUGCAGGUAGGUCGCCCGCGCGGCG [Same State Arginine B GF 5]”, the “apparent KD of MS2 coat protein” value is reported as 0.0588 µM. With “AGAUUCGACACGGCCGCCACUCUACACGGAUUUCCGAGUGUCGAACAUGAGGAUCACCCAUGUGGGAGGACCGGGUGUUGAGUCU [XTryp B #11]” the “apparent KD of MS2 coat protein” value was 0.164 µM. For “AUAUGAAAGAGUGAUACCAGACUACAUGAGGAUCACCCAUGUGACAUUUAAAUAUCAUUUGUCCCUUGGCAGCACAUUAAGUACA [JR_Nu_ExcTheophyB_Sub021]”, the “apparent KD of MS2 coat protein” value was 0.0357 µM. “ACAUGAGGAUCACCCAUGUAUCAACGGGAAGGAGCGCCAAACAAGGCAGGUAGGUCGCCCACAUGAGGAUCACCCGUGUGUUGGG [Exclusion Arginine A GF 30]” was tested, and the “apparent KD of MS2 coat protein” value was 0.0231 µM. With “AAUAACAUGAGGAUCACCCAUGUAAAAGAUACCAGAGUGAUGAUCCUCCCUUGGCAGCUUAACGCUGAUUGGAAACAAUCAGCGA [Mat - Same State Theophlline A - Mod of Eli - D1]” the “apparent KD of MS2 coat protein” value was 0.0341 µM. For “GGGCCCGGGCCCGCGCGGGCCCGGGCCCAACGAGGACCGGUACGGCCGCCACUCGAACGAGUGGGUACAUGAGGAUCACCCAUGU [Baa]”, the “apparent KD of MS2 coat protein” value was 0.0386 µM. In the case of “AUAUUACAUGUUAUUAUACGGUAUACUGAUACCAGUGUUUCUAUUCACCCUUGGCAGCAGCAACAUGAGGAUCACCCAUGUAUUA [JR_SSTheophyA_Sub018]”, the “apparent KD of MS2 coat protein” value is reported as 0.0156 µM. In the case of “AGAGUCUAGUCGGCCGCCACUCAUGUCCAAUGGACAUGAGGAUCACCCAUGUACCGAAGGUACAUGAGGACCGGGACUGGACUCA [Omei Tryp B SS C v6]”, the “apparent KD of MS2 coat protein” value is reported as 0.0436 µM. In the case of “AACGCGGUGAUGGUAGCCGGACGCUAGGUACGAGGACCGGUACGGCCGCCACUCGGAGUCCUACGACAUGAGGAUCACCCAUGUA [Same State Trp A GF15]”, the “apparent KD of MS2 coat protein” value is reported as 0.0539 µM. For “AGAUUCGACACGGCCGCCACUUUCAGUGGCUGGUCACAUGGUGCACAUGAGGAUCACCCAUGUGGAAGGACCGGGUGUUGAGUCU [XTryp B #25]”, the “apparent KD of MS2 coat protein” value was 0.023 µM. “AUCUCGUUCAAUAUACCGCCUUGACUAGAUACCAGCAUGGACCCAUGCCCUUGGCAGCUGGACAUGAGGAUCACCCAUGUUUCAG [SSTheo A #27]” was tested, and the “apparent KD of MS2 coat protein” value was 0.0107 µM. “GCCAUCGGCGGAAGCCGAUGGGAUACAGAAGGAGCGUAGGAAACUACAGGUAGGUCGCUGGACAUGAGGAUCACCCAUGUGAUAG [SSAA #11]” was tested, and the “apparent KD of MS2 coat protein” value was 0.0196 µM.
